Measured values: patent publication US20240400689A1 (ANTENGENE BIOLOGICS, published 2024)
One block for each binder: values may come before it.

What was measured:
[1] = target: T1, Macaca fascicularis CD276 (Macaca fascicularis); assay: FACS on CHO-S-cynoCD276 cells
T1 construct: whole, on cells; also called cynomolgus monkey CD276; cynoCD276
Method: (§1) Screening & Expansion—The subcloning plates were screened by protein or cell-based Elisa, and the subclones with good binding ability were expanded to 24-wells for confirmation tests. The specificity and cross-reactivity of these subclones were confirmed with FACS analysis. Briefly, parental CHO-S cells, CHO-S-hCD276, CHO-S cell line stably over-expressing Macaca fascicularis CD276, CHO-K1 S, cell line stably over-expressing mouse CD276 were incubated with antibodies produced by each subclone respectively. Fluorescent dye-conjugated secondary antibody was used to detect the binding of the primary antibody with the cells. Median fluorescence intensity was measured by FACS analysis.

mouse CD276 protein = target: T2, mouse CD276 protein (mouse, UniProt Q8VE98 29-316); assay: FACS on CHO-S-mCD276 cells
T2 construct: whole, on cells; also called mCD276; CHO-S-mCD276
T2 sequence (looked up): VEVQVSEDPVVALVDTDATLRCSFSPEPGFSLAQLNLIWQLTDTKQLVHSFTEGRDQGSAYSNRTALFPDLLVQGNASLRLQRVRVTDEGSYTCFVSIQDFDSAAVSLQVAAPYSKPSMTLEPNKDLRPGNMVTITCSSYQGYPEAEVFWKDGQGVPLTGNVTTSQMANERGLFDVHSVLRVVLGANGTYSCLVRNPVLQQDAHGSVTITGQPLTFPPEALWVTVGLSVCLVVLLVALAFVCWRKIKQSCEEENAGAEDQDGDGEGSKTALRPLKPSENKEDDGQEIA
Method: as §1

human CD276 protein [2] = target: T3, human CD276 protein (human, UniProt Q5ZPR3 29-534); assay: FACS on CHO-S-hCD276 cells
T3 construct: whole, on cells; for SKOV3 and the other cancer lines the protein is the cells' own; also called B7-H3; B7H3
T3 sequence (looked up): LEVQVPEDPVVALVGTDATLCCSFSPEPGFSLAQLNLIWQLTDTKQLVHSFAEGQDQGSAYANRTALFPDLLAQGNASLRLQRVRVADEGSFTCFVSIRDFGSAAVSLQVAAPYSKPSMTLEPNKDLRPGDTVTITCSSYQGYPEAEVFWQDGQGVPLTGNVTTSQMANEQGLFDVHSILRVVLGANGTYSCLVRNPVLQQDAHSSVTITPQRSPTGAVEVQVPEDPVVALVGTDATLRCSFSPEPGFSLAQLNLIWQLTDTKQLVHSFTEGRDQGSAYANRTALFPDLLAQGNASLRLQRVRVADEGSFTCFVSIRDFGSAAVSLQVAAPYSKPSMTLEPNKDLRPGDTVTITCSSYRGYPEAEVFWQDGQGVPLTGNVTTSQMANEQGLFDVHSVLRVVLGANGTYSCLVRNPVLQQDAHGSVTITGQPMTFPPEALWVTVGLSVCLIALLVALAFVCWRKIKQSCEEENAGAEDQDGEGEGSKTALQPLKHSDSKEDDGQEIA
Method: as §1

human CD276 protein [3] = target: T3, human CD276 protein; assay: FACS on SKOV3 cells
From the text: Sequences of 31 mouse antibodies from Table 5 were selected to generate and produce human IgG1 chimeric antibodies. The binding affinity of these antibodies and bench mark antibody, Enoblituzumab (see U.S. Pat. No. 8,802,091, MGA271, specifically with a construct designated as hBRCA84D-2) and MGC018 (an antibody-drug-conjugate, in which the mAb MGA017 (human IgG1) is conjugated via a cleavable linker to the prodrug seco-DUocarmycin hydroxyBenzamide Azaindole (DUBA), an alkylating agent that can damage DNA in both dividing and non-dividing cells, thereby causing cell death) with human patient derived ovarian cancer cell line, SKOV3, was determined by FACS analysis.
1. Digested cells using Trypsin (1×); Centrifuged the harvested cells at 300 g for 3 min and discarding the supernatant. […] 2. Washed the cells 2 times with FACS buffer by centrifuging at 300 g for 3 min and discarding the supernatant. [0445] 3. […] Kept the cells in dark for FACS analysis.

B1: 9-B9-H11-G7 (antibody, V domains shown)
VH: DVQLQESGPGLVKPSQSLSLTCSVTGYSITSGYYWNWIRQFPGNKLEWMVYISYDGTNNYNPSLKNRISITRDTSKNQFFLKLNSVTTEDTATYYCARGDSNSYYFDYWGQGTTLTVSS
VL: QAVVTQESALTTSPGGTVILTCRSSTGAVTTSNYANWVQEKPDHLFTGLIGGTSNRAPGVPVRFSGSLIGDKAALTITGAQTEDDAMYFCALWYRTHYVFGGGTKVTVL
notes: mouse monoclonal antibody (hybridoma)
FACS MFI [1]: 146000
FACS MFI (mouse CD276 protein): 1360
FACS MFI (human CD276 protein [2]): 96800

B2: 9-G12-D6-A11 (antibody, V domains shown)
VH: DVQLQVSGPGLVKPSQSLSLTCSVAGYSITSDYYWNWIRQFPGNKLEWMGYISYDGTNNYNPSLKNRISITRDTSKGQFFLKFNSVTTEDTATYYCARGKDGSYYFDYWGQGTTLTVSS
VL: QAVVTQESALTTSPGGTVILTCRSSTGAVTTSNYANWVQEKPDHLFTGLIGGTSNRAPGVPVRFSGSLIGDKAALTITGAQTEDDAMYFCALWYRTHYVFGGGTMVTVL
notes: as for B1
FACS MFI [1]: 35700
FACS MFI (mouse CD276 protein): 1420
FACS MFI (human CD276 protein [2]): 53200

B3: 6-H11-G5-D8 (human IgG1 chimeric antibody) (antibody, V domains shown)
VH: EVQLQESGPELVKPGTSVKLSCKASGYTFTSYDINWVRQRPEQGLEWIGWIFPGNGDTYYNEKFKGKATLTSDKSSSTAYMQLSRLTSEDSAVYFCARDLRLGTFDYWGQGTTLTVSS
VL: QIVLTQSPEIMSASPGEKVTMTCSASSSVSYIHWYQQKSGTSPKRWIYDTSKLASGVPARFSGSGSGTSYSLTIRSMEAEDAATYYCQQGSSNPRTFGGGTKLELK
notes: human IgG1 chimeric antibody of the mouse clone
EC50 (human CD276 protein [3]): 1.78 µg/mL
MFI (Max) (human CD276 protein [3]): 200

B4: 13-E4-G9-A4 (antibody, V domains shown)
VH: EVMLVESGGGLVKPGGSLKFSCAASGFTFITYAMSWVRQTPEKRLEWVATISGGGIDTYYPDSVKGRFTISRDNAKNTLYLQVNSLRSEDTAMYYCTRQGSQGWGAMDYWGQGTSVTVSS
VL: QIVLTQSPPIMSASPGERVTMTCRASSRVSFMHWYQQKSGTSPRRWIYETSKLASGVPDRFSGSVSGTSYSLTISSMEAEDAATYYCQQWSSNPLTFGAGTKLELK
notes: as for B1
FACS MFI [1]: 16800
FACS MFI (mouse CD276 protein): 1370
FACS MFI (human CD276 protein [2]): 149000

B6: 10-G6-C4-B2 (antibody, V domains shown)
VH: EVQLVESGGGLVQPGGSLRLSCATSGFTLSDYYMSWVRQPPGKAPEWLGFMRNKANGYTTEYSASVRGRFTISRDTSQSIIYLQMNTLRAEDGATYYCVRDRDGRPFAYWGQGTLVTVSA
VL: DIVMTQSPSSLTVTAGEKVTMSCKSSQSLLNSINQKNFLTWYQQKPGQPPKLLIYWASTRESGVPDRFTGSGSGTDFTLTISSVQAEDLAIYYCQNDYTYPLTFGTGTKLELK
notes: as for B1
FACS MFI [1]: 4320
FACS MFI (mouse CD276 protein): 17400
FACS MFI (human CD276 protein [2]): 5650

B7: 15-G1-D1-E3 (antibody, V domains shown)
VH: QVQLQQPGAELVKPGTSVKLSCKASGYTFTSYWIHWVKQRPGQGLEWIGMIHPKSGTVDYNEKFKSKATLTADKSSNTAYMQLSSLTSEASVVYYCARGENYDYRPQFVYWGQGTLVTVSA
VL: QLVLTQSSSASFSLGASAKLTCTLSSQHSTYTIEWYQQQPLKPPKYVMELKKDGSHRTGDGIPDRFSGSSSGADRYLSISNIQPEDEAIYICGVGDTIKEQFVYVFGGGTKVTVL
notes: as for B1
FACS MFI [1]: 99400
FACS MFI (mouse CD276 protein): 6610
FACS MFI (human CD276 protein [2]): 62500

B8: 8-B4-F5-E11 (antibody, V domains shown)
VH: QVQLQQPGAELVKPGASVKLSCKASGDTFTSYWMHWVKQRPGQGLEWIGMIHPDSGTRNYNEKVMSKATLNVDKSSSTAYLHLSSLTSEDSAVYYCSRSYGSRLAWFAYWGQGTLVTVSA
VL: QAVVTQESALTTSPGETVTLTCRSSTGAVTTSNFANWVQEKPDHLFTGLIGGTNNRAPGVPARFSGSLIGDKAALTITGAQTEDEAVYFCALWYTNHFIFGSGTKVTVL
notes: as for B1
FACS MFI [1]: 58600
FACS MFI (mouse CD276 protein): 7370
FACS MFI (human CD276 protein [2]): 40400

B11: 10-B9-D10-A12 (antibody, V domains shown)
VH: EVQLQESGPELVRPGVSVKISCKGSGYTFTDYTMHWVKLSHAKSLEWIGVISTYYGNTNYNQKFKGKATLTVDKSSSTAYMELARLTSEDSAIYYCARASYGSGYGPYYWYFDVWGAGTTVTVSS
VL: DIQMTQSPASLFASVGETVTITCRASEKIYSYLAWYFQKQGKSPQFLVYNANALAEGVPSRFSGSGSGTQFSLKINSLQPEDFGTYYCQHHYGTPVTFGAGSKLELK
notes: as for B1
FACS MFI [1]: 10100
FACS MFI (human CD276 protein [2]): 400000

B12: 8-C3-E3-F3 (antibody, V domains shown)
VH: EVQLVESGGGLVQPGGSLKLSCAASGFTFSNYGLSWVRLTPDKRLEVVATIGSYGGNTYYPDSVKGRFTISRDNAKNTLYLQMSSLKSEDTAIYYCARDIYYGNSEAWFAYWGQGTLVTVSA
VL: DIVMTQAAFSNPVTLGTSASISCRSSKSLLHSNGITYLYWYLQKPGQSPQLLIYQMSNLASGVPDRFSSSGSETDFTLRISRVEAEDVGVYYCAQNLELPWTFGGGTKLEIK
notes: as for B1
FACS MFI [1]: 12100
FACS MFI (mouse CD276 protein): 1320
FACS MFI (human CD276 protein [2]): 63900

B13: 30-C7-C11-D4 (antibody, V domains shown)
VH: EVQLVESGPGLVKPSQSLSLTCTVTGYSITSDYAWNWIRQFPGNKLEWMGYISHSGSTSYNPSLKSRISITRDTSKNQFFLQLNSVTTEDTATYYCARSLGRRWYFDVWGAGTTVTVSS
VL: DIVMTQSPSSLAMSVGQKVTLSCKSSQSLLNSSTQKNYLAWYQQKPGQSPKLLVYFASTRDSGVPDRFIGSGSGTEFTLTISSVQAEDLADYFCQQHYIIPFTFGAGTKLEIK
notes: as for B1
FACS MFI [1]: 96300
FACS MFI (mouse CD276 protein): 8220
FACS MFI (human CD276 protein [2]): 138000

More lines, now with the values ahead:

FACS MFI [1]: 39100
FACS MFI (mouse CD276 protein): 1160
FACS MFI (human CD276 protein [2]): 148000
B5: 25-C8-D7-C5 (antibody, V domains shown)
VH: EVQLQESGGGLVKPGGSLKFSCAASGFTFSTYAMSWVRQTPEKRLEWVATISGGGIDTYYPDSVKGRFTISRDNAKNTLYLQMNSLRSEDTAMYYCARQGSKGWGAMDYWGQGTSVTVSS
VL: QIVLTQSPAIMSASPGEKVTMTCRASSSVSFMHWYQQKSGTSPKRWIYETSKLASGVPDRFSGSGSGTSYSLTISSMEAEDAATYYCQQWSSNPLTFGAGTKLELK
notes: as for B1

FACS MFI [1]: 51100
FACS MFI (mouse CD276 protein): 67000
FACS MFI (human CD276 protein [2]): 88800
B9: 20-F8-B5-G2 (antibody, V domains shown)
VH: EVQLQESGPSLVKPSQTLSLTCSVTGDSITSAYWNWIRKFPGNKLEYMGYISNSGSTYYNPSLKSRISITRDTSKNQYYLQLNSVTTEDTGTYYCVRGERYYGYGAYWGQGTLVTVSA
VL: DIVMTQATPSVPVTPGESISISCRSSKSLLHSNGNTYLYWFLQRPGQSPQLLIYRMSNLASGVPDRFSGSGSGTAFTLRISRVEAEDVGVYYCMQHLEYPFTFGAGTKLELK
notes: as for B1

FACS MFI [1]: 13200
FACS MFI (mouse CD276 protein): 1340
FACS MFI (human CD276 protein [2]): 77000
B10: 20-C5-D7-D3 (antibody, V domains shown)
VH: EVQLVESGGDLVKPGGSLKLSCAASGFTFRSYGMSWVRQTPDKRLEWVATISGGGNYTYYPDSVKGRFTISRDNAKNTLYLQMSSLKSEDTAMYYCARHEGLPLDYWGQGTTLTVSS
VL: DIQMTQSPASLSASVGETVTITCRASENIYSYLAWYQQKQGKSPQLLVYNAKTLAEGVPSRFSGSGSGTQFSLKINSLQPEDFGNFYCQHHYGTPTWTFGGGTKLEIK
notes: as for B1

FACS MFI [1]: 35100
FACS MFI (mouse CD276 protein): 1300
FACS MFI (human CD276 protein [2]): 47000
B14: 30-E2-G7-G7 (antibody, V domains shown)
VH: EVQLQESGGGLVKPGGSLKLSCAASGFTFSYYAMSWVRQTPEKRLEWVATINGDGSHTYYPDSVRGRFTISRDNAKNTLYLQVSSLRSEDTAMYYCASLLQLGPFWGQGTTLTVSS
VL: DIVMTQSQKFMSTSVGDRVSVTCKASQNVGTNVAWYHQRPGQSPKPLIYSASYRYSGVPDRFTGSGSGTDFTLTISNVQSEDLAEYFCQQYNNYPLTFGSGTKLEIK
notes: as for B1
